For one assay, the target named is human iC3b (human) (UniProt P01024). The assay can be described thus: sandwich ELISA: chicken anti-C3 capture antibody, captured antigen, A209 as detecting antibody, goat anti-mouse-HRP, ABTS. (In general: ELISA stands for enzyme-linked immunosorbent assay.)
In the next assay the target is T1, murine iC3b (mouse, UniProt P01027 25-1663, limits assumed).
T1 construct: Native material from a mixture of two mouse sera; the capture antibody also takes C3b and C3c; also called mouse iC3b
T1 sequence (P01027 25-1663 limits assumed): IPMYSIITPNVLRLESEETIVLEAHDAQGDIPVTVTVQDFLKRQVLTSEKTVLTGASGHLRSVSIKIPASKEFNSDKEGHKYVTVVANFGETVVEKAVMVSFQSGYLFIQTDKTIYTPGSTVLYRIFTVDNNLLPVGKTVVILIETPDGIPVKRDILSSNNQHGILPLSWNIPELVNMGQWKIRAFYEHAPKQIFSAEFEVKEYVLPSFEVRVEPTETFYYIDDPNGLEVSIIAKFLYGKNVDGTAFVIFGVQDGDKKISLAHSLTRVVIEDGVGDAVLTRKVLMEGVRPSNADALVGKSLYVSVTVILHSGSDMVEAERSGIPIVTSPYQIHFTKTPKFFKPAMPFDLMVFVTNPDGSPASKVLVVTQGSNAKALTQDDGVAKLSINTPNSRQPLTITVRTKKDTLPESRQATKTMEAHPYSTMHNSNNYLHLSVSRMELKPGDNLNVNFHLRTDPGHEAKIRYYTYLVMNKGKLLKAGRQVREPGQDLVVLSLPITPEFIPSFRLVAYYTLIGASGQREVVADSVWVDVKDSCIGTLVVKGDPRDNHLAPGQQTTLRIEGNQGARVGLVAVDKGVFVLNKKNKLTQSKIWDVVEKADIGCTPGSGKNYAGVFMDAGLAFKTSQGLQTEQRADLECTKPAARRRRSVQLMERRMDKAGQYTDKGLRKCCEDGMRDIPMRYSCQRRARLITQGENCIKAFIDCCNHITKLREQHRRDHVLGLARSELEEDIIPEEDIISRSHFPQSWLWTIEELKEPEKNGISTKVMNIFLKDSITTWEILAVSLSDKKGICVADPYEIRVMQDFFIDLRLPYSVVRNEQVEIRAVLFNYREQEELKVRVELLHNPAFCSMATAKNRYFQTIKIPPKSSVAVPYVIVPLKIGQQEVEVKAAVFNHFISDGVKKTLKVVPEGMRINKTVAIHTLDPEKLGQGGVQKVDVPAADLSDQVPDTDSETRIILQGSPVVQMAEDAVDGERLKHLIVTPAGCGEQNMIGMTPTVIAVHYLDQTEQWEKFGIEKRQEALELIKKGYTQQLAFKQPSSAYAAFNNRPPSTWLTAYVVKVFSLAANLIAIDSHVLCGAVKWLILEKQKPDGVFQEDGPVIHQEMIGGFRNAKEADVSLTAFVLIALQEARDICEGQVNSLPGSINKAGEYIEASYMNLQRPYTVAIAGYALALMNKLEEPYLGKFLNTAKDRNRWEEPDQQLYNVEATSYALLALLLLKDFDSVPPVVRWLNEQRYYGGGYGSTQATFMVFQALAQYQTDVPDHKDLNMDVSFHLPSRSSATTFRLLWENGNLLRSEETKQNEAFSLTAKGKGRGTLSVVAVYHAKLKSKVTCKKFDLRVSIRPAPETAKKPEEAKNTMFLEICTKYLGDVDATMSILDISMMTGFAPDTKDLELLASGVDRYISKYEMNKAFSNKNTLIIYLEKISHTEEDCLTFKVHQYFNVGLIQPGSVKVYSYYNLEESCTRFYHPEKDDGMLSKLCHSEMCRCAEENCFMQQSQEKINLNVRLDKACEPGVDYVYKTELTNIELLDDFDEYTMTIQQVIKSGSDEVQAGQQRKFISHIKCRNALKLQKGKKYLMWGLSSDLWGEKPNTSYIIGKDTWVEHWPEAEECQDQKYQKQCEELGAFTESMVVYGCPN
The assay can be described thus: sandwich ELISA: rat mAb 2/11 (anti-mouse C3b/iC3b/C3c) capture, mouse serum 1:25 as antigen source, biotinylated antibody, streptavidin-HRP, ABTS, read at 405 nm.

The term EC50 (read off the curve) denotes the concentration that produces a half-maximal response. Lower therefore signals a more potent agent.

human iC3b (human), sequence (P01024 23-667 limits assumed, chain 1 of 3): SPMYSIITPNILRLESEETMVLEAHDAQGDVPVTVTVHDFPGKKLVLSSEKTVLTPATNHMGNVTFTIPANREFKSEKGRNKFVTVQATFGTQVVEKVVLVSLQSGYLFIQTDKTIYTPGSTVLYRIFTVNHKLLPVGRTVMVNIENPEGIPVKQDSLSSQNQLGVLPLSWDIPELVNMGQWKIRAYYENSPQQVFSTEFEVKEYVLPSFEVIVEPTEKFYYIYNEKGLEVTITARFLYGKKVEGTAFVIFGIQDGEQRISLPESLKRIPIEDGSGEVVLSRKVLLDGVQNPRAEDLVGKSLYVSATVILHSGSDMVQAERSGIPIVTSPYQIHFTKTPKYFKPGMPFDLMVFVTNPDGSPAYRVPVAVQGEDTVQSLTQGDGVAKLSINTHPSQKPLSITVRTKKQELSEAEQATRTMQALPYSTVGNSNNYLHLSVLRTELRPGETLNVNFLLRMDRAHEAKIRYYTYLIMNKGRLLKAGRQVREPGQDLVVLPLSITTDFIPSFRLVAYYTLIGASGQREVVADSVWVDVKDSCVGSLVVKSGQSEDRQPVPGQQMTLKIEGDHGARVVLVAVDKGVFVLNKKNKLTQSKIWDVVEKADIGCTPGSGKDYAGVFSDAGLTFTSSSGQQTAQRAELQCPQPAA
human iC3b (human), sequence (P01024 749-1303 limits assumed, chain 2 of 3): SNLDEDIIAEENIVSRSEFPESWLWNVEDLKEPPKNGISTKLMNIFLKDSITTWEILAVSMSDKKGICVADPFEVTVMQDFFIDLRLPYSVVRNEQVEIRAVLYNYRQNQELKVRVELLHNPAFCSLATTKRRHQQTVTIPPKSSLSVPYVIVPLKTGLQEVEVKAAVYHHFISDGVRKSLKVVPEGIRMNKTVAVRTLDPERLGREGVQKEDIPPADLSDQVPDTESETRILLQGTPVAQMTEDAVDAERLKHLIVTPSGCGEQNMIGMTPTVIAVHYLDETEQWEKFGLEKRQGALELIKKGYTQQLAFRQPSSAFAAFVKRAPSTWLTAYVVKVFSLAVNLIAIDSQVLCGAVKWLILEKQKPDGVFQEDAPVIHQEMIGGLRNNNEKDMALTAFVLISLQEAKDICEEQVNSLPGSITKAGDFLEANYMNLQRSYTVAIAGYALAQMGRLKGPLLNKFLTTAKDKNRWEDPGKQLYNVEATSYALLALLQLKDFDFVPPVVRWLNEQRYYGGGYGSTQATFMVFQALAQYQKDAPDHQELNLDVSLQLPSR
human iC3b (human), sequence (P01024 1321-1663 limits assumed, chain 3 of 3): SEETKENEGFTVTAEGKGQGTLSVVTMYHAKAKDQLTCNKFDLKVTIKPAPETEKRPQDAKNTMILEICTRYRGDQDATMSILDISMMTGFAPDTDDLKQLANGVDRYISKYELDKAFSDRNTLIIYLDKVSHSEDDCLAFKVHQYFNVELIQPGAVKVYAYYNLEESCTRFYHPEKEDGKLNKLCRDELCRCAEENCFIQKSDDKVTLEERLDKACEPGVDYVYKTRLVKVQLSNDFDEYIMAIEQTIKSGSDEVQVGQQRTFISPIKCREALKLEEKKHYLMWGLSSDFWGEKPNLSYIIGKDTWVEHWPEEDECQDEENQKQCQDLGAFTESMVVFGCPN

As for “A209 antibody (Quidel), mouse anti-human iC3b monoclonal antibody”, the EC50 (read off the curve) with human iC3b (human) was 0.03 µg/mL.

B1: mouse monoclonal antibody 5D2 (antibody, V domains shown)
VH: EVQLQQSGPELVKPGASVKISCKASGYTFTDNYYMNWVKQSHGKSLEWIGHIYPNNGVTSYNQKFRGKATLTVDKSSNSAYMELRSLTSEDSALYYCARNKLLSLYWYFDVWGTGTSVTVSS
VL: DIQMTQSSSSFSVFLGDRITITCRASVDIYNRLAWFQQKPGNAPRLLISGATSLATGVPSRFSGSGSGKDYTLSITSLQTEDVTIYYCQQYWSTPWTFGGGTKLEIKR
In the case of B1, the concentration for a half-maximal effect (EC50 (read off the curve)) with murine iC3b is about 20 nM.

These data come from patent US20120258041A1 (published 2012).
